IntAct's records for PubMed 19523115

B1: Solute carrier family 2, facilitated glucose transporter member 8 (Mus musculus), Q9JIF3 (parent)
chain: MSPEDPQETQPLLRPPEARTPRGRRVFLASFAAALGPLSFGFALGYSSPAIPSLRRTAPPALRLGDNAASWFGAVVTLGAAAGGILGGWLLDRAGRKLSLLLCTVPFVTGFAVITAARDVWMLLGGRLLTGLACGVASLVAPVYISEIAYPAVRGLLGSCVQLMVVTGILLAYVAGWVLEWRWLAVLGCVPPTLMLLLMCYMPETPRFLLTQHQYQEAMAALRFLWGSEEGWEEPPVGAEHQGFQLALLRRPGIYKPLIIGISLMVFQQLSGVNAIMFYANSIFEEAKFKDSSLASVTVGIIQVLFTAVAALIMDRAGRRLLLALSGVIMVFSMSAFGTYFKLTQSLPSNSSHVGLVPIAAEPVDVQVGLAWLAVGSMCLFIAGFAVGWGPIPWLLMSEIFPLHVKGVATGICVLTNWFMAFLVTKEFSSVMEMLRPYGAFWLTAAFCALSVLFTLTVVPETKGRTLEQVTAHFEGR
B2: Solute carrier family 2, facilitated glucose transporter member 8 (Mus musculus), Q9JIF3 (parent)
chain: B1 chain
partner: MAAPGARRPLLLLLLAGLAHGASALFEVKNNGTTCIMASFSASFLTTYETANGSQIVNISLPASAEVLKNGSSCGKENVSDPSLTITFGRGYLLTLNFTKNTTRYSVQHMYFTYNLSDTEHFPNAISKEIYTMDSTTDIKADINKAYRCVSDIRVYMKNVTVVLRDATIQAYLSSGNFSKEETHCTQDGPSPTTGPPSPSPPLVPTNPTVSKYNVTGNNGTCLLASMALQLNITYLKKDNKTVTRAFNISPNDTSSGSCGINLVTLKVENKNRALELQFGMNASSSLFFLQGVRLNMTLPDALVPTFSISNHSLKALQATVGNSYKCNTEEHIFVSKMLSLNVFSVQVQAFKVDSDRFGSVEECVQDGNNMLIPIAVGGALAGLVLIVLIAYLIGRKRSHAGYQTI

Variants of: B1
Details: with ap1g1_human AP1G1, O43747
ap1g1_human AP1G1, O43747, sequence (O43747 whole entry): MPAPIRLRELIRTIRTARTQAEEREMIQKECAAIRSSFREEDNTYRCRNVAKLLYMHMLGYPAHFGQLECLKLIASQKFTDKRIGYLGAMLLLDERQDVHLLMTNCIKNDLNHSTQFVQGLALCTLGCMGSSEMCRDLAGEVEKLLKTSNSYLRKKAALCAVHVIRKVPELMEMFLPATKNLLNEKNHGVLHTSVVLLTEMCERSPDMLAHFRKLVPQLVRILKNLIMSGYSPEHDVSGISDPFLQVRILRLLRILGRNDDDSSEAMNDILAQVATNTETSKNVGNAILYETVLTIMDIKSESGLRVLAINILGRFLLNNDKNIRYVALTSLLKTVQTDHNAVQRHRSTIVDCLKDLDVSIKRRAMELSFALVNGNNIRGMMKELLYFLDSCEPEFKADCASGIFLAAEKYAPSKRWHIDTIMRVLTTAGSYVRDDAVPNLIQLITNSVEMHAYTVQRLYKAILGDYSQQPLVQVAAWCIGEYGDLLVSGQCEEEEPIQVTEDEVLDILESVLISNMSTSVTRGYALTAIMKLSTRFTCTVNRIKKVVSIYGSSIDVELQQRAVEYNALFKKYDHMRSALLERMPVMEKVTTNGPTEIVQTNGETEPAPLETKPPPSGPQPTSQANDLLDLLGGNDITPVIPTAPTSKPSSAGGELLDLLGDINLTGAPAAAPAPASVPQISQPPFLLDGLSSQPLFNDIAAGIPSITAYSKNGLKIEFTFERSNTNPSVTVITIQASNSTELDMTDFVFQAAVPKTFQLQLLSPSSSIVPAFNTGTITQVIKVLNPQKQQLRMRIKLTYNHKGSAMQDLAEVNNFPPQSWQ

Variant | effect of a mutation on the interaction
MSPEDPQETQPALRPPEARTPRGRRVFLASFAAALGPLSFGFALGYSSPAIPSLRRTAPPALRLGDNAASWFGAVVTLGAAAGGILGGWLLDRAGRKLSLLLCTVPFVTGFAVITAARDVWMLLGGRLLTGLACGVASLVAPVYISEIAYPAVRGLLGSCVQLMVVTGILLAYVAGWVLEWRWLAVLGCVPPTLMLLLMCYMPETPRFLLTQHQYQEAMAALRFLWGSEEGWEEPPVGAEHQGFQLALLRRPGIYKPLIIGISLMVFQQLSGVNAIMFYANSIFEEAKFKDSSLASVTVGIIQVLFTAVAALIMDRAGRRLLLALSGVIMVFSMSAFGTYFKLTQSLPSNSSHVGLVPIAAEPVDVQVGLAWLAVGSMCLFIAGFAVGWGPIPWLLMSEIFPLHVKGVATGICVLTNWFMAFLVTKEFSSVMEMLRPYGAFWLTAAFCALSVLFTLTVVPETKGRTLEQVTAHFEGR [L12A] | disrupting interaction

Variants of: B1
Details: with ap1g1_mouse Ap1g1, P22892
ap1g1_mouse Ap1g1, P22892, sequence (P22892 whole entry): as the sequence (O43747 whole entry) above, with T596S, S650A, N664T, A674T, A702P, I769V counted along it

Variant | effect of a mutation on the interaction
MSPEDPQETQPALRPPEARTPRGRRVFLASFAAALGPLSFGFALGYSSPAIPSLRRTAPPALRLGDNAASWFGAVVTLGAAAGGILGGWLLDRAGRKLSLLLCTVPFVTGFAVITAARDVWMLLGGRLLTGLACGVASLVAPVYISEIAYPAVRGLLGSCVQLMVVTGILLAYVAGWVLEWRWLAVLGCVPPTLMLLLMCYMPETPRFLLTQHQYQEAMAALRFLWGSEEGWEEPPVGAEHQGFQLALLRRPGIYKPLIIGISLMVFQQLSGVNAIMFYANSIFEEAKFKDSSLASVTVGIIQVLFTAVAALIMDRAGRRLLLALSGVIMVFSMSAFGTYFKLTQSLPSNSSHVGLVPIAAEPVDVQVGLAWLAVGSMCLFIAGFAVGWGPIPWLLMSEIFPLHVKGVATGICVLTNWFMAFLVTKEFSSVMEMLRPYGAFWLTAAFCALSVLFTLTVVPETKGRTLEQVTAHFEGR [L12A] | disrupting interaction

Variants of: B1
Details: with ap2b1_rat Ap2b1, P62944
ap2b1_rat Ap2b1, P62944, sequence (P62944 whole entry): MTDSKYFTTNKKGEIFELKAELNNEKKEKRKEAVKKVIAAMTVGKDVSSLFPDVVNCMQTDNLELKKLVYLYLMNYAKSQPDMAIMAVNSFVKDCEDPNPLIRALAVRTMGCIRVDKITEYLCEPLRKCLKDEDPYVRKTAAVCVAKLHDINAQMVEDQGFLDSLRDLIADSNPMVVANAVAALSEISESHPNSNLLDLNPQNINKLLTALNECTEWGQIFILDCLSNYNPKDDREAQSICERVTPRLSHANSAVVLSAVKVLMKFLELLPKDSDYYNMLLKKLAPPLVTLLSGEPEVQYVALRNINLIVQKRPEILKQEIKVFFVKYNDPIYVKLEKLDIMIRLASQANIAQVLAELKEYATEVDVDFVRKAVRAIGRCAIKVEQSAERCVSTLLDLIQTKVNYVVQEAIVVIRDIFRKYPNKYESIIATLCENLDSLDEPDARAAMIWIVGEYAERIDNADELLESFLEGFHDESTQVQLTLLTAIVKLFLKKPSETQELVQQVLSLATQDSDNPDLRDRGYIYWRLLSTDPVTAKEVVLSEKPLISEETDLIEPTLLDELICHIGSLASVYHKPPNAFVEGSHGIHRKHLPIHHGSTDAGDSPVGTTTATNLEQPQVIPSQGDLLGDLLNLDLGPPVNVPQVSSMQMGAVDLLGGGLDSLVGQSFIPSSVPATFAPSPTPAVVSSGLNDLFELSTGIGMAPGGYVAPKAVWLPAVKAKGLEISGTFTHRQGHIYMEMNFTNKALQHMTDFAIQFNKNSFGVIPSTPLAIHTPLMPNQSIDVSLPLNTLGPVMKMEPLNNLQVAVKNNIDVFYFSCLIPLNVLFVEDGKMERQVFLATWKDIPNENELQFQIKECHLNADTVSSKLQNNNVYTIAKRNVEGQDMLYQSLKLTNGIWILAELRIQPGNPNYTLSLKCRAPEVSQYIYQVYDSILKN

Variant | effect of a mutation on the interaction
MSPEDPQETQPALRPPEARTPRGRRVFLASFAAALGPLSFGFALGYSSPAIPSLRRTAPPALRLGDNAASWFGAVVTLGAAAGGILGGWLLDRAGRKLSLLLCTVPFVTGFAVITAARDVWMLLGGRLLTGLACGVASLVAPVYISEIAYPAVRGLLGSCVQLMVVTGILLAYVAGWVLEWRWLAVLGCVPPTLMLLLMCYMPETPRFLLTQHQYQEAMAALRFLWGSEEGWEEPPVGAEHQGFQLALLRRPGIYKPLIIGISLMVFQQLSGVNAIMFYANSIFEEAKFKDSSLASVTVGIIQVLFTAVAALIMDRAGRRLLLALSGVIMVFSMSAFGTYFKLTQSLPSNSSHVGLVPIAAEPVDVQVGLAWLAVGSMCLFIAGFAVGWGPIPWLLMSEIFPLHVKGVATGICVLTNWFMAFLVTKEFSSVMEMLRPYGAFWLTAAFCALSVLFTLTVVPETKGRTLEQVTAHFEGR [L12A] | decreasing interaction

Variants of: B1
Details: with ap2b1_mouse Ap2b1, Q9DBG3
ap2b1_mouse Ap2b1, Q9DBG3, sequence (Q9DBG3 whole entry): as the sequence (P62944 whole entry) above, with A612T counted along it

Variant | effect of a mutation on the interaction
MSPEDPQETQPLARPPEARTPRGRRVFLASFAAALGPLSFGFALGYSSPAIPSLRRTAPPALRLGDNAASWFGAVVTLGAAAGGILGGWLLDRAGRKLSLLLCTVPFVTGFAVITAARDVWMLLGGRLLTGLACGVASLVAPVYISEIAYPAVRGLLGSCVQLMVVTGILLAYVAGWVLEWRWLAVLGCVPPTLMLLLMCYMPETPRFLLTQHQYQEAMAALRFLWGSEEGWEEPPVGAEHQGFQLALLRRPGIYKPLIIGISLMVFQQLSGVNAIMFYANSIFEEAKFKDSSLASVTVGIIQVLFTAVAALIMDRAGRRLLLALSGVIMVFSMSAFGTYFKLTQSLPSNSSHVGLVPIAAEPVDVQVGLAWLAVGSMCLFIAGFAVGWGPIPWLLMSEIFPLHVKGVATGICVLTNWFMAFLVTKEFSSVMEMLRPYGAFWLTAAFCALSVLFTLTVVPETKGRTLEQVTAHFEGR [L13A] | increasing interaction

Variants of: B2
Details: with lamp1_mouse Lamp1, P11438

Variant | effect of a mutation on the interaction
MSPEDPQETQPALRPPEARTPRGRRVFLASFAAALGPLSFGFALGYSSPAIPSLRRTAPPALRLGDNAASWFGAVVTLGAAAGGILGGWLLDRAGRKLSLLLCTVPFVTGFAVITAARDVWMLLGGRLLTGLACGVASLVAPVYISEIAYPAVRGLLGSCVQLMVVTGILLAYVAGWVLEWRWLAVLGCVPPTLMLLLMCYMPETPRFLLTQHQYQEAMAALRFLWGSEEGWEEPPVGAEHQGFQLALLRRPGIYKPLIIGISLMVFQQLSGVNAIMFYANSIFEEAKFKDSSLASVTVGIIQVLFTAVAALIMDRAGRRLLLALSGVIMVFSMSAFGTYFKLTQSLPSNSSHVGLVPIAAEPVDVQVGLAWLAVGSMCLFIAGFAVGWGPIPWLLMSEIFPLHVKGVATGICVLTNWFMAFLVTKEFSSVMEMLRPYGAFWLTAAFCALSVLFTLTVVPETKGRTLEQVTAHFEGR [L12A] | disrupting interaction
